These results are taken from paper PMC9388692, “Nuclear import of PTPN18 inhibits breast cancer metastasis mediated by MVP and importin β2” (Cell Death & Disease, 2022).

For one experiment, the target named is T1, His-tagged importin β2 (UniProt Q92973 1-898).
T1 construct: source: purified proteins
T1 sequence (looked up): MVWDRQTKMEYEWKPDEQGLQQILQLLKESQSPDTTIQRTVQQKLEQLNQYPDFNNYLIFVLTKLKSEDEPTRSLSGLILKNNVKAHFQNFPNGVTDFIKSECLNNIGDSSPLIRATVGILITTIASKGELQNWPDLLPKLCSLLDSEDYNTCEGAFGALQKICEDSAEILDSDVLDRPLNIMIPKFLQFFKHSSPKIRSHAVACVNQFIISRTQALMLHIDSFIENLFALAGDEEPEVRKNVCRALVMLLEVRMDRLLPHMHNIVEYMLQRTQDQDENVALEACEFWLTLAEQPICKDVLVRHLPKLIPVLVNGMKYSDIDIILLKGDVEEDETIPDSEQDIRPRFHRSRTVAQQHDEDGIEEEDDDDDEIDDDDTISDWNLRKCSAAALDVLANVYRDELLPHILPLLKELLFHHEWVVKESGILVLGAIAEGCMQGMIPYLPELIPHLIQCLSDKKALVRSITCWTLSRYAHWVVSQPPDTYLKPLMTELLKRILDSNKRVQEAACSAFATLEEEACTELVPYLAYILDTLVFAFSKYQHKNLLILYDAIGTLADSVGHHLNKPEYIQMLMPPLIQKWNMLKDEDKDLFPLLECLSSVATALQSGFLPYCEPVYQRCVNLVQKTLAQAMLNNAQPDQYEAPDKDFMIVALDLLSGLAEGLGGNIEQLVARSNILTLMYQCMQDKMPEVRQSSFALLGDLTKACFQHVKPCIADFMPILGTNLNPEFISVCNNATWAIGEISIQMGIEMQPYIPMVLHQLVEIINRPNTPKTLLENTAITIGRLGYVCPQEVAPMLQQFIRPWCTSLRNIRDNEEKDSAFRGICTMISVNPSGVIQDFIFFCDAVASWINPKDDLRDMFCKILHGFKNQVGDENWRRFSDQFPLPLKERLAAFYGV
The experiment can be described thus: pull-down; GST pull-down of GST-tagged PTPN18 and its NLS mutants with His-tagged importin β2; purified proteins, in vitro. The settings on record: both partners purified.

The next experiment addresses T2, His-tagged MVP (UniProt Q14764 1-893).
T2 construct: MVP, His-tagged, for GST pull-down
Briefly: pull-down; GST pull-down with GST-tagged PTPN18 and His-tagged MVP; called a direct interaction, in vitro. The settings on record: both partners purified.

T2 sequence (Q14764 whole entry): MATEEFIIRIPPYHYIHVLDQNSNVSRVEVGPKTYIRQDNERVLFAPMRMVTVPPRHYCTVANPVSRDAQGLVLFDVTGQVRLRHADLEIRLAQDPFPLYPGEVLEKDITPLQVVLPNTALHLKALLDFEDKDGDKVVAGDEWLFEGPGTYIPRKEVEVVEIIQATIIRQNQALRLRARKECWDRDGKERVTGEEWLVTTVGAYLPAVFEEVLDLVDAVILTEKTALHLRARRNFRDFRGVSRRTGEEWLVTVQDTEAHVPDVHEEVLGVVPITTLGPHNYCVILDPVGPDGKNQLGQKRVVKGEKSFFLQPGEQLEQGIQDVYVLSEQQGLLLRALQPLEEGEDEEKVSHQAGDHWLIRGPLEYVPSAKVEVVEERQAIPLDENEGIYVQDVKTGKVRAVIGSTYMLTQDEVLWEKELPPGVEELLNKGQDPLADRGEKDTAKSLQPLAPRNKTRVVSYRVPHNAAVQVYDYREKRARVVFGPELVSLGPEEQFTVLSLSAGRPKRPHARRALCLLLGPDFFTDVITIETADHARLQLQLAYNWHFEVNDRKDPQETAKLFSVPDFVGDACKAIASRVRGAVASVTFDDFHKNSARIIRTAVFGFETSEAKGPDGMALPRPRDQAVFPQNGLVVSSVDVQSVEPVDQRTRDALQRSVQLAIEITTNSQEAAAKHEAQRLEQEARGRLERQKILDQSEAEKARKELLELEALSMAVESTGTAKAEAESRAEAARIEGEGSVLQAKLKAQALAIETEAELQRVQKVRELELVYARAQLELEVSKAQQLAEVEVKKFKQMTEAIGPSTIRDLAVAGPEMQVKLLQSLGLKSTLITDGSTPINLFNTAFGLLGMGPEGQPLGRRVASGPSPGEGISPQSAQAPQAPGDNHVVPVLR

B1: GST-tagged PTPN18 (natural protein, UniProt Q99952 1-460, looked up)
chain: MSRSLDSARSFLERLEARGGREGAVLAGEFSDIQACSAAWKADGVCSTVAGSRPENVRKNRYKDVLPYDQTRVILSLLQEEGHSDYINGNFIRGVDGSLAYIATQGPLPHTLLDFWRLVWEFGVKVILMACREIENGRKRCERYWAQEQEPLQTGLFCITLIKEKWLNEDIMLRTLKVTFQKESRSVYQLQYMSWPDRGVPSSPDHMLAMVEEARRLQGSGPEPLCVHCSAGCGRTGVLCTVDYVRQLLLTQMIPPDFSLFDVVLKMRKQRPAAVQTEEQYRFLYHTVAQMFCSTLQNASPHYQNIKENCAPLYDDALFLRTPQALLAIPRPPGGVLRSISVPGSPGHAMADTYAVVQKRGAPAGAGSGTQTGTGTGTGARSAEEAPLYSKVTPRAQRPGAHAEDARGTLPGRVPADQSPAGSGAYEDVAGGAQTGGLGFNLRIGRPKGPRDPPAEWTRV
notes: PTPN18 wild type, GST-tagged, for GST pull-down; also called PTPN18 WT; source: purified proteins
For the molecule B1, the binding result in the experiment with His-tagged importin β2 and in the experiment with His-tagged MVP was “binds” in each case.
